Measured values from publication PMC9436932 (Scientific Reports, 2022).

Biological target: the molecule itself
Assay: SEC

B1: TatB^22–171 (soluble membrane-extrinsic cytoplasmic domain of E. coli TatB, transmembrane helix residues 1–21 deleted) (domain or fragment, UniProt P69425 22-171, looked up)
chain: PQRLPVAVKTVAGWIRALRSLATTVQNELTQELKLQEFQDSLKKVEKASLTNLTPELKASMDELRQAAESMKRSYVANDPEKASDEAHTIHNPVVKDNEAAHEGVTPAAAQTQASSPEQKPETTPEPVVKPAADAEPKTAAPSPSSSDKP
notes: also called membrane-extrinsic domain of TatB; soluble TatB
Q: Does B1 bind?
A: Result: binds
